Laboratory results from publication PMC2877039 (Developmental cell, 2010).

T1: His6-tagged full-length Sec15 protein (yeast, UniProt P22224 1-910)
T1 sequence (looked up): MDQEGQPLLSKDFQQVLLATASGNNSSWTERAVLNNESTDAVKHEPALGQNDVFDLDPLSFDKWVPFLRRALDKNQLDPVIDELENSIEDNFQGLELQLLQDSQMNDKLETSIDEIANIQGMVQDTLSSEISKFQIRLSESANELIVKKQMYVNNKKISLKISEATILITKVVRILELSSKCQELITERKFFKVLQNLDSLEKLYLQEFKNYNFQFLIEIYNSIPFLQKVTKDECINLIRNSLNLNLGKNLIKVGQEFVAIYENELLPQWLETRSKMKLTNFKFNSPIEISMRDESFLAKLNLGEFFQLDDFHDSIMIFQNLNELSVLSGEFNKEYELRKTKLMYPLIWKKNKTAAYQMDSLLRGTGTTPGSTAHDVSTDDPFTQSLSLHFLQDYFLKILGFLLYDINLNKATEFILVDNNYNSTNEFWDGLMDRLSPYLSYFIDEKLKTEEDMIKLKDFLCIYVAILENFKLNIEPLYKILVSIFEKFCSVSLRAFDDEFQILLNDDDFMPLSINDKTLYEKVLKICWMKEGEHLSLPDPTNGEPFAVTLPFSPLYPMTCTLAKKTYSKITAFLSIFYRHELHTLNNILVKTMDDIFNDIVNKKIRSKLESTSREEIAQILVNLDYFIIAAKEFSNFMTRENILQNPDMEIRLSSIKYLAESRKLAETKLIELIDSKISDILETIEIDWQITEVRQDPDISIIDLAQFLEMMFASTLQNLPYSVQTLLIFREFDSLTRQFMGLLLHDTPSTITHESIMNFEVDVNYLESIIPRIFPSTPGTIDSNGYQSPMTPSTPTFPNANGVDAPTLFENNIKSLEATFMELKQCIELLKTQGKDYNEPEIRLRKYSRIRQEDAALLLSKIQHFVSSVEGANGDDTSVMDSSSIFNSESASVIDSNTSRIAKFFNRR

B1: GST-Sec2p (wild type) (natural protein, yeast, UniProt P17065 1-759, looked up)
chain: MDASEEAKRVSIQVTSLSTQLIESVDKQSHLEEQLNKSLKTIASQKAAIENYNQLKEDYNTLKRELSDRDDEVKRLREDIAKENELRTKAEEEADKLNKEVEDLTASLFDEANNMVADARKEKYAIEILNKRLTEQLREKDTLLDTLTLQLKNLKKVMHSLDNESTVTNNSNRYSTILSDSATSSSTSLNKVPTSYSLASQDIYSGIVYSPSISSIRYDISLYNEFLKFVAALPRCENIKATSTESKLIRRLVNDEIQPILKIDNASGIGWLVKKTLLSLIIDGLVVVEPLSGVNATYQIGYNSSSPAKQATSNMPKMFKFPLDSPPVAVHAACSFCGESRDDIIEHARMYILKTLHKTDDGKEQVTNTYPLCHWCLLKLRQTCEIFAFLRSLKVGAWHLEKLTTQNITKEDLEKFSEVTKHTKRDGRVSSQDKKTKRLSFMAGLGINSSTKNKPKMEIFSSETNAKPGQPTTNIQRAWLQLCKLRCILHWTHIGIWAVDDSISSKIGPLVEDDSDEDQNDAISVRLQDKALWKQDAKRPFSSSSAEESQKSDAFDFESGDMENEITGESSSDESSSDGSSTDNSTADSSSEDESSLADSTTSSADSSSPESIDNGEGDDTVTKDDKSSIKSANNNEENSDCGDKKGRSIIKKKAPQRKIQKKKLLQDLDDLEEQFREESAIDQTEFENAESNVKQNISSKRASSGDENSKKDNNEKTLKTNLTIGDKTQEQIGENSPSSGLHASSSNDDNFDDAQEQQ
B2: Sec15p C-terminal fragment (a.a. 559–910) (domain or fragment, yeast, UniProt P22224 559-910, looked up)
chain: MTCTLAKKTYSKITAFLSIFYRHELHTLNNILVKTMDDIFNDIVNKKIRSKLESTSREEIAQILVNLDYFIIAAKEFSNFMTRENILQNPDMEIRLSSIKYLAESRKLAETKLIELIDSKISDILETIEIDWQITEVRQDPDISIIDLAQFLEMMFASTLQNLPYSVQTLLIFREFDSLTRQFMGLLLHDTPSTITHESIMNFEVDVNYLESIIPRIFPSTPGTIDSNGYQSPMTPSTPTFPNANGVDAPTLFENNIKSLEATFMELKQCIELLKTQGKDYNEPEIRLRKYSRIRQEDAALLLSKIQHFVSSVEGANGDDTSVMDSSSIFNSESASVIDSNTSRIAKFFNRR

Experiments:
[1] = molecular target: T1, His6-tagged full-length Sec15 protein; assay: pull-down
GST-Sec2p (wild type) = molecular target: B1; assay: pull-down

Row | binding result [1] | binding result (GST-Sec2p (wild type)) | Binder
1 | binds |  | B1
2 |  | binds | B2
